These results are taken from PMC5397143.

This assay addresses RctB, wild-type full-length (residues 1–658) (Vibrio cholerae). Nature of the assay: native MS.

On to “RctB, wild-type full-length (residues 1–658) (natural protein)”, for which the stoichiometry N is 2.
